We go through four molecules from patent publication US7442519B2, “KCNQ2-15 potassium channel” (priority 2002, dated 2008).

One assay concerns GSK-3β and PKA. The assay is described as follows: In vitro phosphorylation assay of GST-2E11 with recombinant GSK-3β kinase and PKA. It counts as biochemical. Conditions: LiCl added to the kination mix; signal negatively correlated with LiCl concentration. The method, then:
Expression and purification of the GST-2E11 fusion protein were performed as described above. Beads with bound fusion protein corresponding to 1 ml of bacterial clear lysate were washed three times in NETN and one time with HMK buffer without DTT (20 mM Tris-HCl [pH 7.5], 120 mM NaCl, 12 mM MgCl2). Beads were resuspended in 240 μl of reaction mix (24 μl of 10×HMK Buffer with 20 mM DTT, 40 units of Protein Kinase A Catalytic Subunit [PKA from bovine heart, 250 units/vial, Sigma] in 40 mM DTT, 5 μl of 24 mM ATP and 207 μl of distilled water) and incubated for 30 min at room temperature. Beads were then washed three times in NETN buffer and one time in GSK-3β reaction buffer (20 mM Tris-HCl [pH 7.5], 10 mM MgCl2, 5 mM DTT) (New England Biolabs). Beads were then resuspended in 50 μl of reaction mix (5 μl of 10×GSK-3β reaction buffer, 1 μl of [^32P]γATP 10 mCi/ml, 50 U of recombinant GSK-3β[New England Biolabs], and distilled water for a final volume of 50 μl) and incubated at room temperature for 30 min. After three washes in NETN buffer, phosphorylated proteins were boiled in 2×Sample Buffer (125 mM Tris-HCl [pH 6.8], 4% SDS, 20% glycerol, 1.4 M β-Mercapto ethanol), resolved by 10% SDS-PAGE, and visualized by autoradiography.
In this phosphorylation assay, non-radiolabeled polypeptides to be tested are incubated in the presence of GSK-3β, PKA and radioactive ATP. […]

The target of the next assay is T1, PP2A/Bγ (Homo sapiens, UniProt Q9Y2T4, E66D/G293D/R253P).
T1 construct: The full-length coding region of the PPP2R2C gene, which encodes the PP2A/Bγ subunit; expressed in transfected cells; host or cells: Saccharomyces cerevisiae (AH109 / Y184 mating partners)
T1 sequence (Q9Y2T4 1-447 E66D/R253P/G293D): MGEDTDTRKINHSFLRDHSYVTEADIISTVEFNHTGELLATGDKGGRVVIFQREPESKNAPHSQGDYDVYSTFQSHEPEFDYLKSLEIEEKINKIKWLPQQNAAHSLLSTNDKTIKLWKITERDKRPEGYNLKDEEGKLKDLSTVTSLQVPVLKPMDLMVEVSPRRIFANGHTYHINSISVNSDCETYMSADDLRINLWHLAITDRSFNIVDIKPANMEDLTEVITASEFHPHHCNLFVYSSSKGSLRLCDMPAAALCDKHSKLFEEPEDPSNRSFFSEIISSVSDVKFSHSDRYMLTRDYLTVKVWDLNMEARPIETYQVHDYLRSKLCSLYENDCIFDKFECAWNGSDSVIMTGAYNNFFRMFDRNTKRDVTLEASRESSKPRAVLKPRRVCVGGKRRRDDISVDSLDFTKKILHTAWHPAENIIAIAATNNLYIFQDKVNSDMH
The assay is described as follows: Solid phase overlay assay with radiolabeled GST-PPP2R2C probe. The settings on record: 100 ng, 10 ng and 0.1 ng loaded; band intensity proportional to loaded quantity. It counts as binding. Here is the method: Solid phase overlay assays were performed by adapting the method described by Kaelin and collaborators (Kaelin et al., 1992, Cell, 70:351-364). 100 ng, 10 ng and 0.1 ng of GST and GST-2E11 recombinant proteins were resolved by 9% SDS-PAGE and were transferred by electroblotting onto nitrocellulose membrane (nitrocellulose transfer membrane Protran BA 83, Schleicher and Schuell). The membrane were then blocked in HBB buffer (25 mM Hepes-KOH [pH 7.7], 25 mM NaCl, 5 mM MgCl2) with 5% (w/v) non-fat dry milk, 1 mM DTT, 0.05% Nonidet P-40 for 1 hr at room temperature. The binding reaction was carried out at room temperature in Hyb75 buffer (20 mM Hepes [pH 7.7], 75 mM KCl, 2.5 mM MgCl2, 0.1 mM EDTA, 0.05% Nonidet P-40) with 1% (w/v) non-fat dry milk, 1 mM DTT, 1 mM PMSF and 3.5 10^5dpm of a [^32P]-γATP GST-PPP2R2C radiolabeled recombinant protein used as a probe. After 4.5 hr of incubation, the membrane was washed with Hyb75 buffer, 1 mM DTT, 1% (w/v) non-fat dry milk three times for 15 min at room temperature. The blots were analyzed by autoradiography.
This experiment was performed to validate the interaction between KCNQ2-15b polypeptides and PP2A/Bγ. In this experiment, the PP2A/Bγ subunit was radiolabeled but not the proteins present on the nitrocellulose membrane. […] Furthermore, the intensity of the bands was proportional to the quantity of loaded GST-2E11. […]

The subject of a further assay is Xenopus laevis oocytes. The experiment in a line: Electrophysiological analysis (two-electrode voltage clamp) of homotetrameric potassium channels. It counts as cell-based. Conditions: 0.4 ng of DNA injected. In general terms: Two-electrode voltage clamp is typically applied to oocytes expressing channels or transporters.

Experimental for Xenopus laevis oocytes: The animal was anesthetized and pieces of the ovary were surgically removed and individual oocytes were dissected away in a saline solution (ND96) containing 96 mM NaCl, 2 mM KCl, 2 mM CaCl2, 2 mM MgCl2 and 5 mM HEPES at pH 7.4. Stage V and VI oocytes were treated at room temperanre for 2 h with collagenase type 1A (1 mg/ml) in the presence of 0.2 mg/ml trypsin inhibitor in saline solution to discard follicular cells. […] DNA corresponding to KCNQ2, 3H2 and 3H9 K+ channels were subcloned in PEKO vector in order to generate the respective cRNAS. cRNA concentrations were measured by absorbance at 260 nm. cRNA solutions were injected (about 50 nL/oocyte) using a pressure microinjector (Inject+matic, Geneve). Oocytes were then kept for 2-6 days in ND96 solution supplemented wirn 50 U/mL penicillin and 50 U/mL streptomycin.
In a 0.3 mL perfusion chamber, a single oocyte was impaled with two standard glass microelectrode (0.5-2 Mohm resistance) filled with 3M KCl and maintained under voltage clamp using a Dagan TEV200 amplifier system, USA. Electrical stimulations, data acquisition and analyses were performed using pClamp software (Axon Instruments, USA). […]

As for `[Cl-].[Li+]` [LiCl], the “intensity of the phosphorylated GST-2E11 band” value in the assay with GSK-3β and PKA is “decreased”.

B1: GST-2E11: fusion protein between a KCNQ2-15b polypeptide comprising exons 13, 14 and 15b and GST (protein)
chain: SSQKVSLKDRVFSSPRGVAAKGKGSPQAQTVRRSPSADQSLEDSPSKVPKSWSFGDRSRARQAFRIKGAASRQNSEEASLPGEDIVDDKSCPCEFVTEDLTPGLKVSIRAVCVMRFLVSKRKFKESLRPYDVMDVIEQYSAGHLDMLSRIKSLQSRQEPRLPVQQGTRTGWASGTKPTVAHGGSAGGVWAGPPPHPRRPLSASVVSSQSLF
modifications: left off: a dimerising Fc or GST
notes: fusion protein between a KCNQ2-15b polypeptide comprising exons 13, 14 and 15b and GST
Take B1: the “interaction with PP2A/Bγ (band by autoradiography)” value in the assay with PP2A/Bγ was “interacts”.

B2: KCNQ2-15bx: polypeptide of SEQ ID NO: 2, novel KCNQ2 splice variant (protein, listed as Homo sapiens)
chain: MVQKSRNGGVYPGPSGEKKLKVGFVGLDPGAPDSTRDGALLIAGSEAPKRGSILSKPRAGGAGAGKPPKRNAFYRKLQNFLYNVLERPRGWAFIYHAYVFLLVFSCLVLSVFSTIKEYEKSSEGALYILEIVTIVVFGVEYFVRIWAAGCCCRYRGWRGRLKFARKPFCVIDIMVLIASIAVLAAGSQGNVFATSALRSLRFLQILRMIRMDRRGGTWKLLGSVVYAHSKELVTAWYIGFLCLILASFLVYLAEKGENDHFDTYADALWWGLITLTTIGYGDKYPQTWNGRLLAATFTLIGVSFFALPAGILGSGFALKVQEQHRQKHFEKRRNPAAGLIQSAWRFYATNLSRTDLHSTWQYYERTVTVPMYSSQTQTYGASRLIPPLNQLELLRNLKSKSGLAFRKDPPPEPSPSKGSPCRGPLCGCCPGRSSQKVSLKDRVFSSPRGVAAKGKGSPQAQTVRRSPSADQSLEDSPSKVPKSWSFGDRSRARQAFRIKGAASRQNSEEASLPGEDIVDDKSCPCEFVTEDLTPGLKVSIRAVCVMRFLVSKRKFKESLRPYDVMDVIEQYSAGHLDMLSRIKSLQSRQEPRLPVQQGTRTGWASGTKPTVAHGGSAGGVWAGPPPHPRRPLSASVVSSQSLF
For the molecule B2, the “intensity of the M-current generated by the homotetrameric potassium channel” value with Xenopus laevis oocytes is “about 800 nA”.

B3: KCNQ2-15by: polypeptide of SEQ ID NO: 4, novel KCNQ2 splice variant (protein, listed as Homo sapiens)
chain: MVQKSRNGGVYPGPSGEKKLKVGFVGLDPGAPDSTRDGALLIAGSEAPKRGSILSKPRAGGAGAGKPPKRNAFYRKLQNFLYNVLERPRGWAFIYHAYVFLLVFSCLVLSVFSTIKEYEKSSEGALYILEIVTIVVFGVEYFVRIWAAGCCCRYRGWRGRLKFARKPFCVIDIMVLIASIAVLAAGSQGNVFATSALRSLRFLQILRMIRMDRRGGTWKLLGSVVYAHSKELVTAWYIGFLCLILASFLVYLAEKGENDHFDTYADALWWGLITLTTIGYGDKYPQTWNGRLLAATFTLIGVSFFALPAGILGSGFALKVQEQHRQKHFEKRRNPAAGLIQSAWRFYATNLSRTDLHSTWQYYERTVTVPMYSSQTQTYGASRLIPPLNQLELLRNLKSKSGLAFRKDPPPEPSPSQKVSLKDRVFSSPRGVAAKGKGSPQAQTVRRSPSADQSLEDSPSKVPKSWSFGDRSRARQAFRIKGAASRQNSEEASLPGEDIVDDKSCPCEFVTEDLTPGLKVSIRAVCVMRFLVSKRKFKESLRPYDVMDVIEQYSAGHLDMLSRIKSLQSRQEPRLPVQQGTRTGWASGTKPTVAHGGSAGGVWAGPPPHPRRPLSASVVSSQSLF
For B3, the “intensity of the M-current generated by the homotetrameric potassium channel” value in the assay with Xenopus laevis oocytes is on record as “about 700 nA”.
